This is an account of results in patent US20220396758A1 (University of California, published 2022).

For the experiment, the target named is T1, covalently-linked trimer of an N-terminal truncated ClpX variant (ClpX-ΔN3) (E. coli, UniProt A7ZIJ6 62-424).
T1 construct: About 30-100 nM was present in the trans solution with ATP; also called synthetically designed trimer of ClpX subunits expressed as a single chain
Briefly: nanopore ionic current recording; substrate cis, ClpX/ATP trans.

B1: substrate protein S1 (single N-terminal Smt3 domain, 65-amino-acid charged flexible tail, C-terminal 11 amino acid ssrA tag) (other)
chain: MGSSHHHHHHGSGLVPRGSASMSDSEVNQEAKPEVKPEVKPETHINLKVSDGSSEIFFKIKKTTPLRRLMEAFAKRQGKEMDSLRFLYDGIRIQADQTPEDLDMEDNDIIEAHREQIGGGGSSGGSGGSGSSGDGGSSGGSGGSGSSGDGGSSGGSGGDGSSGDGGSDGDSDGSDGDGDSDGDDAANDENYALAA
notes: Engineered fusion expressed in E. coli BL21 (DE3)*; About 1-2 uM was added to the cis well; also called engineered Smt3 protein
Take B1: the binding result is “binds”.
